{"source": "paper PMC10460364", "key": {"Cys42": {"tested_on": "Cys42", "experiment": "UV-vis", "details": "10 °C; poly-buffer: 10 mM sodium acetate, 10 mM sodium phosphate, 10 mM sodium borate, 10 mM sodium citrate, pH 9.4, titrated with 100 mM HCl; Reduced protein (20 µM), referenced to CHP-oxidised protein; folded."}, "Cys45": {"tested_on": "Cys45", "experiment": "UV-vis", "details": "10 °C; poly-buffer: 10 mM sodium acetate, 10 mM sodium phosphate, 10 mM sodium borate, 10 mM sodium citrate, pH 9.4, titrated with 100 mM HCl; Reduced protein (20 µM), referenced to CHP-oxidised protein; folded."}}, "data": [{"substance": "Alkyl hydroperoxide reductase CgAhp (NCgl0877), AhpD-like disulfide oxidoreductase (Corynebacterium glutamicum (strain RES167, derivative of ATCC 13032))", "values": [{"measurement": "pKa", "setting": "Cys42", "result": "lower than 6"}, {"measurement": "pKa", "setting": "Cys45", "result": 8.39}]}]}
